*1 amine or outer side, *2 acyl side, *3 side chain or, on linkers, in order; H or OH if unused. Bridges are numbered along the chain shown (N, C = ends). Where no end group is shown, it is not given here. [ ]: non-standard residue; d: D form. The star is where a group is joined. TATA = O=C(CC[*:1])N1CN(C(=O)CC[*:2])CN(C(=O)CC[*:3])C1; Trp(1-Me) = Cn1cc(C[C@H](N)C(=O)O)c2ccccc21; Arg(Me2a) = CN(C)C(=N)NCCC[C@H](N)C(=O)O; Phe(4-F) = N[C@@H](Cc1ccc(F)cc1)C(=O)O; tBuAla = CC(C)(C)C[C@H](N)C(=O)O; NMeA = CN[C@@H](C)C(=O)O; Octanoyl = CCCCCCCC(=O)*
B1: Example 15 (peptide)
peptide: Octanoyl-C[NMeA][Trp(1-Me)][tBuAla]QDC[Trp(1-Me)][Arg(Me2a)]G[Phe(4-F)]C-NH2
modifications: linker 1-7-12 via TATA
SMILES: CCCCCCCC(=O)N[C@H]1CSCCC(=O)N2CN3CN(C2)C(=O)CCSC[C@H](NC(=O)[C@H](CC(=O)O)NC(=O)[C@H](CCC(N)=O)NC(=O)[C@H](CC(C)(C)C)NC(=O)[C@H](Cc2cn(C)c4ccccc24)NC(=O)[C@H](C)N(C)C1=O)C(=O)N[C@@H](Cc1cn(C)c2ccccc12)C(=O)N[C@@H](CCCNC(=N)N(C)C)C(=O)NCC(=O)N[C@@H](Cc1ccc(F)cc1)C(=O)N[C@H](C(N)=O)CSCCC3=O
B2: Example 16 (peptide)
peptide: CQXLEDCXRGXC
modifications: not fully specified; Ac-CQ[TrpMe]LEDC[TrpMe]RG[4-FPhe]C; 3 Cys cyclised with TATA

How the values were obtained:
[1] = molecular target: T1, Biotinylated human TSLP (hTSLP(29-159)-Avi) (human, biotinylated (C-terminal Avi-tag)); assay: SPR, biotinylated hTSLP on streptavidin chip, peptide injected
T1 construct: also called thymic stromal lymphopoietin

[2] = molecular target: TSLP (as used in the human PBMC assay) (UniProt Q969D9 29-159); assay: cell-based or functional assay

T1 sequence (chain, as listed by the source limits assumed): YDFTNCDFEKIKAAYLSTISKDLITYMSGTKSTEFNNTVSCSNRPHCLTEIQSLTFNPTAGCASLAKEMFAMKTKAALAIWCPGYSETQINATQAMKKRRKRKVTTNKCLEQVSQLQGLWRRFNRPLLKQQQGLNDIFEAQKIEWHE

Binder | Kd [1] | other results
Ac-CDWHWEYDCWLSC (linker 1-9-13 via TATA; not fully specified (C-terminus)) [Example 218] | 2000 nM | 
NRSPSECDWHWEYDCWLSC (linker 7-15-19 via TATA; not fully specified (C-terminus)) [Example 217] | 860 nM | 
CDWHWEYDCWLSCEPETGQ (linker 1-9-13 via TATA; not fully specified (C-terminus)) [Example 216] | 320 nM | 
B1 |  | CCL17 % Inhibition @ 10 µM, 50 pM TSLP [2]: 58%; CCL17 % Inhibition @ 10 µM, 400 pM TSLP [2]: 64%
DEQHHECDWHWEYDCWLSCA (linker 7-15-19 via TATA; not fully specified (C-terminus)) [Example 209] | 910 nM | 
SQECQWNWTYDCWLGCA (linker 4-12-16 via TATA) [Example 203] | 320 nM | 
ACDWHWEYDCWLSCDPSSKQA (linker 2-10-14 via TATA) [Example 212] | 250 nM | 
ACDWNWTYDCWLDCAPI (linker 2-10-14 via TATA) [Example 206] | 430 nM | 
ACDWDWDYDCWLPCFAE (linker 2-10-14 via TATA; not fully specified (C-terminus)) [Example 208] | 340 nM | 
SNATKQCDWHWEYDCWLSCA (linker 7-15-19 via TATA; not fully specified (C-terminus)) [Example 210] | 180 nM | 
B2 |  | CCL17 % Inhibition @ 10 µM, 666 pM TSLP [2]: 52%
CDWHWEYDCWLSCGDMSVS (linker 1-9-13 via TATA; not fully specified (C-terminus)) [Example 222] | 450 nM | 
ADGCEWNWAYDCWLGCA (linker 4-12-16 via TATA) [Example 201] | 170 nM | 
SPTEPPCDWHWEYDCWLSC (linker 7-15-19 via TATA; not fully specified (C-terminus)) [Example 215] | 240 nM | 
ANDCVWHWEYDCWLDCA (linker 4-12-16 via TATA; not fully specified (C-terminus)) [Example 220] | 340 nM | 
CDWHWEYDCWLSCYDNEMS (linker 1-9-13 via TATA; not fully specified (C-terminus)) [Example 223] | 3000 nM | 
AETCKWMWEYDCWLSCA (linker 4-12-16 via TATA) [Example 204] | 100 nM | 
